# Assay results: patent US20240002530A1 (LXZ SERVICES, published 2024)
# Substitutions are numbered along the chain they refer to.
# B1: Antibody No. 12 (antibody, V domains shown)
# VH: VQLQESGPGLVKPSQSLSLTCTVTGYSITSDYAWNWIRQFPGNKLEWMGYISYSGSTSYNPSLKSRISITRDTSKNQFFLHLNSVTTEDTATYYCARQTYYYGSSPFTYWGQGTTVTVSS
# VL: DIVMTQTPSSLTVTAGEKVTMRCKSSQSLLNSGNQKSYLTWYQQKPGQPPKLLIYWASTRESGVPDRFTGSGSGTDFTLTISSVQAEDLAVYYCQNDYSYPLTFGAGTKLELK
# notes: Mouse hybridoma monoclonal IgG from ascites; also called PSMA-McAb clone 12
# B2: Antibody No. 14 (antibody, V domains shown)
# VH: VQLQESGPGLVQPSQSLSITCTVSGFSLTSYGVHWVRQSPGKGLEWLGVIWRGGSTDYNAAFMSRLSITKDNSKSQVFFKMNSLQADDTAIYYCAKKKYGNYGAMDYWGQGTTVTVSS
# VL: DIVMTQSPKFLLVSAGDRVTITCKASQSVSNDVAWYQQKPGQSPKLLIYYASNRYTGVPDRFTGSGYGTDFTFTISTVQAEDLAVYFCQQDYSSPYTFGGGTKLELK
# notes: Mouse hybridoma monoclonal IgG from ascites; also called PSMA-McAb clone 14
# B3: Antibody No. 18 (antibody, V domains shown)
# VH: VQLEESGDDLVKPGASVKLSCKASGHTFTSYWINWIKQRPGQGLEWIGRIAPGSGSTYYNEMFKGKATLTVDTSSSTAYIQLSSLSSEDSAVYFCARNLKYGNYGFAYWGQGTTVTVSS
# VL: B1 VL with R22S, S37N, L112I
# notes: Mouse hybridoma monoclonal IgG from ascites; also called PSMA-McAb clone 18
# Target: T1, human prostate-specific membrane antigen (PSMA), on prostate cancer LNCaP and PC-3 cells (human, UniProt Q04609 1-750)
# T1 construct: also called glutamate carboxypeptidase II; GCPII
# Test: flow cytometry on LNCaP cells
# T1 sequence (Q04609 whole entry): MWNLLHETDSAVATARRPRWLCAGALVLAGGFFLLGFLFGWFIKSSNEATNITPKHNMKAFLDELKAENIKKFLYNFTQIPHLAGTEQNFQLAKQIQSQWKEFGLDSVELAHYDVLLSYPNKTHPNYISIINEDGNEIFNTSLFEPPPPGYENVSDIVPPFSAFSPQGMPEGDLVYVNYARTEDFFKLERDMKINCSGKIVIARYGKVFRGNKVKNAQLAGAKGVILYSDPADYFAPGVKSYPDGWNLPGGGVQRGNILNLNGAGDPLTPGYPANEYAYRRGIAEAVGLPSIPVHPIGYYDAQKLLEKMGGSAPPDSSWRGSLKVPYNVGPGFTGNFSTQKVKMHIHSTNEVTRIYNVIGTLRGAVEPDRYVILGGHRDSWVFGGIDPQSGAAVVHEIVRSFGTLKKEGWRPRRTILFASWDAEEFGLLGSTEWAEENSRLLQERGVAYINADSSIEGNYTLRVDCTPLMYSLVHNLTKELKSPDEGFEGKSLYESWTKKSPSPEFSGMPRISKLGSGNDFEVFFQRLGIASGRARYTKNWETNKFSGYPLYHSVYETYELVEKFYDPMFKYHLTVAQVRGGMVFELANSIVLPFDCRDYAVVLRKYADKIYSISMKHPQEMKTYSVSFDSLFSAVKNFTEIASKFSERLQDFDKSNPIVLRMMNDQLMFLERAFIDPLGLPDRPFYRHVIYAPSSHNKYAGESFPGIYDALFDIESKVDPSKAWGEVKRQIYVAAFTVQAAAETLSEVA
row,Binder,binding result
1,B1,binds
2,B2,binds
3,B3,binds
